From article PMC8133395 (Cell reports, 2021)

Target: T1, EBOV sGP (Mayinga) (Zaire ebolavirus, Mayinga, GenBank …, UniProt P60170)
T1 construct: source: FreeStyle-293-F, transiently transfected, purified (Strep-Tactin, SEC)
Assay: ELISA
Conditions: both partners purified

T1 sequence (P60170 33-314): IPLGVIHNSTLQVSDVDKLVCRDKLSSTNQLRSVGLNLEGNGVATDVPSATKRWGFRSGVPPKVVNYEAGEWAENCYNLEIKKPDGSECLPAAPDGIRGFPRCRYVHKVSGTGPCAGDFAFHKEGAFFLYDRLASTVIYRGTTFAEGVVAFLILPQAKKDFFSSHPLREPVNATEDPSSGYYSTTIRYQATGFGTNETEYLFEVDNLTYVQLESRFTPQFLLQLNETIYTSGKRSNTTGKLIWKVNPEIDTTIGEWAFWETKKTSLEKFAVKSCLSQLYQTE

B1: EBOV-548 (antibody, V domains shown)
VH: QVQVEESGGGVVQPGGSLRLSCAASGFMFSNYGMHWVRQAPGKGLEWMAFIRYDDSKKFYADSVKGRFTISRDNSKNTLYLQMNSLRAEDTALYYCAKELLQVYTSAWGEGHSYYYALDVWGLGTAVTVSS
VL: DIQMTQSPSSVSASVGDRVTITCRASQDISNWLAWYQQKPGKAPELLIYTASILQSGVSSRFSGSGSGTDFTLTISSLQPEDSATYYCQQGKSFPYTFGQGTKLEIK
B1: binds.
